Measurements published in patent publication US20040175824A1.
Values joined by “and” are separate entries in the source; they are usually repeats but may differ in a detail not shown here. Equal entries are not always repeated.

Target: human EPO receptor (EPO-Rc) (human) (UniProt P19235)
Experiment: cell-based or functional assay

Chain of UniProt P19235 (P19235 25-508): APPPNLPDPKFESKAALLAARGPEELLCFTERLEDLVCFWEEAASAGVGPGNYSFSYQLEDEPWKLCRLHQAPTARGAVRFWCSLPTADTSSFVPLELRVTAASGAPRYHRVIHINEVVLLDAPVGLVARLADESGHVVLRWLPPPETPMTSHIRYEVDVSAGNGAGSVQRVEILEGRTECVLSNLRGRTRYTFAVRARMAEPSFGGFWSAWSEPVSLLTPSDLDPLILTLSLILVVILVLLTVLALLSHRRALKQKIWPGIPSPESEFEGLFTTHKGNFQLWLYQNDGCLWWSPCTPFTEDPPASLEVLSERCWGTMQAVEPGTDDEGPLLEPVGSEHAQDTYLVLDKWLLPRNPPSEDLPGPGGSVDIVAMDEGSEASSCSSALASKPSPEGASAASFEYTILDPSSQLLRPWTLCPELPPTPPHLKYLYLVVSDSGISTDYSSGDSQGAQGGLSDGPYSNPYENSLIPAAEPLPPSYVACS

Recombinant human EPO (rHuEPO) (from UniProt P01588 28-192) (ligand)
proliferation of the 32D1.9 cells (MTT, OD 550 nm); in vitro biological activity on a molar basis: 3e+06 units/µmole and 4e+06 units/µmole
